From patent US11054428B2, “Inhalable nanosensors with volatile reporters and uses thereof” (Massachusetts Institute of Technology, priority 2018, dated 2021)

Columns and labels:
neutrophil elastase (NE) [1] = target: T1, neutrophil elastase (NE) (Mus musculus, UniProt Q3UP87); experiment: Mechanistic study: NE inhibitor given before nanosensor in infected mice, breath signal; format: in vivo; details: 5 mg/kg intratracheal, 15 min before nanosensor, infected mice (FIG. 12)
T1 construct: from tissue; host or cells: lungs of CD-1 mice, healthy or infected with P. aeruginosa PAO1 (homogenates ex vivo, or lung in vivo)
T1 sequence (Q3UP87 27-265): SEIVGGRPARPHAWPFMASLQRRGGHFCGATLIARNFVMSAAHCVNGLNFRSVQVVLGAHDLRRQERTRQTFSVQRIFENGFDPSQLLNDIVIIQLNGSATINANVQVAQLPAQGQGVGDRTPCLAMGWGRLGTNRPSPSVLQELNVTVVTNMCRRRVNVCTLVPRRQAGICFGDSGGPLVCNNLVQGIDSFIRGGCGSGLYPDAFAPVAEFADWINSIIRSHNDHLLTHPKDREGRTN

neutrophil elastase (NE) [2] = target: T1, neutrophil elastase (NE); format: in vivo, mice
Method: With confirmation that infected lungs trigger greater reporter release and at detectable levels, nanosensors were then tested in acute pneumonia mouse models. […] Infected-7 and Infected-12, which have high initial reporter levels, have nanosensors predominantly in the airway. […] Reporters released from the sensor in the airways are expected to be expired in the breath more rapidly than free reporters deeper in the lung as the tidal volume is only a fraction of the total volume of the lung. […] In fact, infected breath samples at 16 min (18 min post-injection) have 3-fold higher mean reporter levels than breath samples from healthy controls (p=0.0035) (FIG. 4E and FIG. 6, right).
Therefore, subsequent studies focused on nanosensors with pentafluoropropylamine or heptafluoropropylamine reporters. […] Breath signal was reduced by ˜70% due to inhibitor administration, confirming the role of NE in releasing reporters in vivo to generate breath signal (FIG. 12).

[3] = target: T2, lung homogenates (neutrophil elastase) (Mus musculus, UniProt Q3UP87); experiment: Ex vivo reporter release from nanosensors mixed with infected and healthy lung homogenates; parameters: species or system CD-1 mice; details: 24 h post-inoculation with P. aeruginosa PAO1 (FIG. 3C)
T2 construct: from tissue; host or cells: lungs of CD-1 mice, healthy or infected with P. aeruginosa PAO1 (homogenates ex vivo, or lung in vivo)
T2 sequence (Q3UP87 27-265): T1 sequence (Q3UP87 27-265)
Method: Ultimately, the goal was to administer nanosensors into the lungs of mouse models of bacterial pneumonia to test for measurable reporter levels in the breath. Prior to direct administration into animal infection models, nanosensors were mixed ex vivo with infected and healthy lung homogenates. Bacterial pneumonia was established in CD-1 mice by intratracheal injection of 1.5×10^6 cfu Pseudomonas aeruginosa strain PAO1 (FIG. 3A). At 24 h post-inoculation, the time at which mice were euthanized and lung homogenates were prepared, infected lung homogenates had ˜22-fold greater neutrophil elastase concentration than healthy lung homogenates (FIG. 3B and FIG. 7). […] When mixed with nanosensors, infected lung homogenates triggered 5-fold faster reporter release compared to healthy lung homogenates (FIG. 3C).

reduction of breath signal (neutrophil elastase (NE) [1]) [%] | Compound | breath signal, infected vs healthy mice (neutrophil elastase (NE) [2]; 10, 20 and 30 min after administration, low and high doses (FIGS. 10A-10B)) | dose dependence of breath signal (neutrophil elastase (NE) [2]; 10 vs 100 μM doses) | AUROC for identifying infected mice by breath signal (neutrophil elastase (NE) [2]; 10 min, low dose (10 μM), p=0.0062) | mean reporter levels in breath, infected vs healthy controls (neutrophil elastase (NE) [2]; 16 min timepoint (18 min post-injection), p=0.0035) [fold] | reporter levels in breath, infected vs healthy (2-way ANOVA) (neutrophil elastase (NE) [2]; 20 min breath collection, p<0.05) | duration of SNR >1.0 relative to unattached peptide substrate (neutrophil elastase (NE) [2]; FIG. 11B) [×] | reporter levels in breath, infected mice vs healthy controls after convergence (neutrophil elastase (NE) [2]; after first 14 min of breath collection (FIG. 4B)) [fold] | time to disease-distinguishing reporter signal in the breath (neutrophil elastase (NE) [2]; after inhalation) [min] | earliest time of perfect distinction between mice with and without bacterial pneumonia (neutrophil elastase (NE) [2]; after nanosensor inhalation) [min] | breath signal vs peptide substrate unattached to scaffold (neutrophil elastase (NE) [2]; infected mice (FIG. 11A)) | timepoint of maximum effect size of reporter levels (neutrophil elastase (NE) [2]; infected vs healthy (FIG. 4D)) [min] | detectability of reporter levels in breath (neutrophil elastase (NE) [2]; intratracheal instillation, 10 μM equivalent peptide dose) | reporter release rate, infected vs healthy lung homogenates [3] [fold]
~70 | CC(C)(C)C(=O)Oc1ccc(S(=O)(=O)Nc2ccccc2C(=O)NCC(=O)O)cc1 [sivelestat] | – | – | – | – | – | – | – | – | – | – | – | – | –
– | nanosensor: NE peptide substrate Nle(O-Bzl)-Met(O)2-Oic-Abu with C-terminal PFC reporter, conjugated via CKKK-PEG4 linker to 40 kDa 8-arm PEG; pentafluoropropylamine reporter in vivo (CKKKXXXX; not fully specified; non-natural residues) | significantly higher | dose-dependent | 1.0 | 3 | significantly greater | ~3 | ~3 | ≤ 20 | ≥ 12 | higher breath signal than peptide substrates | 16 | detectable | 5
